Laboratory results from patent publication US12247238B2, “Mogroside biocatalysis methods and products” (The Coca-Cola Company, priority 2019, dated 2025).
Substitutions are numbered along the chain they refer to. In names and notes the source's numbering stands. Entries after “also recorded” stand apart in the source; their conditions may differ.

B1: D258E: A. oryzae β-galactosidase variant, D258E (protein, UniProt Q2UCU3 19-1005, looked up, variant D258E)
Beta-galactosidase A: ASIKHRLNGFTILEHPDPAKRDLLQDIVTWDDKSLFINGERIMLFSGEVHPFRLPVPSLWLDIFHKIRALGFNCVSFYIDWALLEGKPGDYRAEGIFALEPFFDAAKEAGIYLIARPGSYINAEVSGGGFPGWLQRVNGTLRSSDEPFLKATDNYIANAAAAVAKAQITNGGPVILYQPENEYSGGCCGVKYPDADYMQYVMDQARKADIVVPFISNDASPSGHNAPGSGTGAVDIYGHESYPLGFDCANPSVWPEGKLPDNFRTLHLEQSPSTPYSLLEFQAGAFDPWGGPGFEKCYALVNHEFSRVFYRNDLSFGVSTFNLYMTFGGTNWGNLGHPGGYTSYDYGSPITETRNVTREKYSDIKLLANFVKASPSYLTATPRNLTTGVYTDTSDLAVTPLIGDSPGSFFVVRHTDYSSQESTSYKLKLPTSAGNLTIPQLEGTLSLNGRDSKIHVVDYNVSGTNIIYSTAEVFTWKKFDGNKVLVLYGGPKEHHELAIASKSNVTIIEGSDSGIVSTRKGSSVIIGWDVSSTRRIVQVGDLRVFLLDRNSAYNYWVPELPTEGTSPGFSTSKTTASSIIVKAGYLLRGAHLDGADLHLTADFNATTPIEVIGAPTGAKNLFVNGEKASHTVDKNGIWSSEVKYAAPEIKLPGLKDLDWKYLDTLPEIKSSYDDSAWVSADLPKTKNTHRPLDTPTSLYSSDYGFHTGYLIYRGHFVANGKESEFFIRTQGGSAFGSSVWLNETYLGSWTGADYAMDGNSTYKLSQLESGKNYVITVVIDNLGLDENWTVGEETMKNPRGILSYKLSGQDASAITWKLTGNLGGEDYQDKVRGPLNEGGLYAERQGFHQPQPPSESWESGSPLEGLSKPGIGFYTAQFDLDLPKGWDVPLYFNFGNNTQAARAQLYVNGYQYGKFTGNVGPQTSFPVPEGILNYRGTNYVALSLWALESDGAKLGSFELSYTTPVLTGYGNVESPEQPKYEQRKGAY
B2: E142A RRK77: β-galactosidase variant, RRK substitutions ENR with E142A (protein, UniProt Q2UCU3 19-1005, looked up, variant E142A G204E C205N V208R)
Beta-galactosidase A: B1 Beta-galactosidase A with E124A, G186E, C187N, V190R, E240D
B3: E142A: A. oryzae β-galactosidase variant, E142A (protein, UniProt Q2UCU3 19-1005, looked up, variant E142A)
Beta-galactosidase A: B1 Beta-galactosidase A with E124A, E240D
B4: S3 RRK 5: RRK loop library variant, positions 204/205/208: ESG (protein, UniProt Q2UCU3 19-1005, looked up, variant G204E C205S V208G)
Beta-galactosidase A: B1 Beta-galactosidase A with G186E, C187S, V190G, E240D
B5: S3 RRK 7: RRK loop library variant, positions 204/205/208: DSE (protein, UniProt Q2UCU3 19-1005, looked up, variant G204D C205S V208E)
Beta-galactosidase A: B1 Beta-galactosidase A with G186D, C187S, V190E, E240D

Legend:
Assay type in all cases: biochemical
[1] = Standard mogroside biocatalytic assay, mogroside V substrate; conditions: for Initial Rate / Reaction Progress / Sia 1: Mogroside hydrolysis; for Initial Rate / Reaction Progress / Sia 1 / Sia:MogIII / Sia:MogIV: 37 C., pH 5.6; for Reaction Progress / Sia 1 / Sia:MogIII / Sia:MogIV: 72 h; for Sia:MogIII / Sia:MogIV: product ratio
Procedure: (§1) Standard mogroside biocatalytic assays were performed at 37° C. in 500 μL, volume 50 mM sodium citrate buffer pH 5.6, 10 mM magnesium chloride, 10 mM substrate (typically mogroside V) and 50 μg mL−1 enzyme, and incubated for 24-96 hours. Mogroside glucosidation activity was detected by direct HPLC detection and quantification of mogroside V substrate and mogroside products from filtered reaction supernatant, and quantified by comparison with standard curves based on peak.
(§2) Mogroside compounds HPLC separation and quantification was conducted using a Synergi Hydro-RP column (250 mm×4.6 mm or 150 mm×4.6 mm) with an initial flow rate of 1 mL min−1 and a water: acetonitrile gradient as per below, similar to that described by Zhou et al. (WO 2014/150127). Compounds were detected at 210 nm using diode array detector (Agilent Technologies, USA), and calibration curves established using standard curves from 0.1 to 10 mM.
(§3) Cells expressing enzyme variants grown in buffered minimal medium were induced for 72 hr with 1% methanol (refreshed every 24 hr), the culture supernatant harvested and assayed for standard ONPG activity over 30 minutes and mogroside V activity at pH 5.6, 37° C. for 72 hrs. The resultant activity data (Table 2) identified E200 and D258 as the likely catalytic pair for acid/base and nucleophilic attack of mogroside V by the A. oryzae β-glucosidase enzyme.

[2] = Example 8 standard mogroside biocatalytic assay, Mog V as substrate; conditions: 37° C., pH 5.6; for % Siamenoside I: 72 hr
Procedure: as §1, with “μL” for “μL,”, “V or Siamenoside I)” for “V)”, “peak area (see Analytical Methods).” for “peak.”
as §2, with “Analytical Method: Mogroside” for “Mogroside”, “mM. 150 mm column retention times in minutes: mog V 9.5, sia 1 10.6, mog IVa 10.5, mog IV 11.3, mog III 12.6, mogl I 13.2. 250 mm column retention times: mog V 12.3, sia 1 13.2, mog IVa 13.5, mog IV 14.1, mog III 15.3, mog II 16.2.” for “mM.”

[3] = β-galactosidase ONPG activity assay; conditions: oNPG substrate, over 30 minutes
Procedure: Standard β-galactosidase assays were performed at room temperature using o-nitrophenyl-β-D-galactopyranoside (ONPG, Sigma) as a substrate in […] with detection of o-nitrophenol release at 420 nm (UV-Spectra Max Spectrophotometer, Molecular Devices, USA). A typical reaction contained 50 mM sodium citrate buffer pH 5.6, 10 mM magnesium chloride and 100 mM potassium chloride with 2 mM ONPG and the desired amount of enzyme (usually […]). Partially purified AoBG (Sigma G5160, USA) was used as a positive control at a final concentration of 1 U mL−1. Vmax was calculated using the SpectraMax Plus software (Molecular Devices, USA) and when required kinetics were determined by varying the concentration of substrate and kinetic determinants calculated using Hyper™ (J. S. Easterby, Liverpool University).
as §3

[4] = Example 8 standard mogroside biocatalytic assay, Sia I as substrate; conditions: 37° C., pH 5.6
Procedure: as §1, with “μL” for “μL,”, “V or Siamenoside I)” for “V)”, “peak area (see Analytical Methods).” for “peak.”
as §2, with “Analytical Method: Mogroside” for “Mogroside”, “mM. 150 mm column retention times in minutes: mog V 9.5, sia 1 10.6, mog IVa 10.5, mog IV 11.3, mog III 12.6, mogl I 13.2. 250 mm column retention times: mog V 12.3, sia 1 13.2, mog IVa 13.5, mog IV 14.1, mog III 15.3, mog II 16.2.” for “mM.”

[5] = Example 8 standard mogroside biocatalytic assay, Mog V as substrate; conditions: 37° C., pH 5.6
[6] = Mogroside biocatalytic assay, equimolar MogV:SiaI substrate
Procedure: as §1, §2

[7] = Mogroside biocatalytic assay, Siamenoside I substrate; conditions: SiaI Substrate (10 mM) (24 h), pH 5.6, 37° C.
Procedure: as §1, §2

[8] = RRK loop library variant screening, mogroside V substrate; conditions: second pass evaluation, 10 mM mogroside V, pH 5.6, 37° C., 72 hours
Procedure: (§4) Single transformant colonies from 3.2.2 were inoculated into 2mL BMGY in 48 well-growth blocks and grown overnight at 30° C., 1000 rpm in a benchtop incubator before dilution of cell culture from each well into 2 mL BMM medium an equivalent well in a fresh growth block, to an OD600 nm of 1.0, and growing the induction growth blocks at 30° C., 1000 rpm in a benchtop incubator for 72 hours. The cells were then harvested (5000 g, 10 minutes) and the supernatant from each well concentrated using a 30 kDa cut-off Amicon Ultra 0.5 mL concentrator column (10 000 g, 5 minutes). Enzymatic assays were setup in fresh growth blocks to a total volume of 500 μL, comprising with 50 mM sodium citrate buffer pH 5.6, 10 mM magnesium chloride, 10 mM mogroside V and 50 μL concentrated supernatant (˜35 μg mL−1 protein). Assays were incubated without shaking at 37° C. for 72 hours. 190 μL of reaction was combined with 10 μL 10 mM internal standard (N-Boc-) and 5 μL analyzed by HPLC.
as §2, with “mM. 150 mm column retention times in minutes: mog V 9.5, sia 1 10.6, mog IVa 10.5, mog IV 11.3, mog III 12.6, mogl I 13.2. 250 mm column retention times: mog V 12.3, sia 1 13.2, mog IVa 13.5, mog IV 14.1, mog III 15.3, mog II 16.2.” for “mM.”
Therefore, variants showing improved function were chosen if they surpassed a yield value >70% by peak area during this first pass evolution.
(§5) 48 variants were selected based on Siamenoside I yields of >70% by peak area for a second pass evaluation. The cell lines were regrown and assayed with both mogroside V and Siamenoside I as substrates, independently.

[9] = RRK loop library variant second pass evaluation, Siamenoside I substrate; conditions: Siamenoside I as substrate
Procedure: as §4
as §2, with “mM. 150 mm column retention times in minutes: mog V 9.5, sia 1 10.6, mog IVa 10.5, mog IV 11.3, mog III 12.6, mogl I 13.2. 250 mm column retention times: mog V 12.3, sia 1 13.2, mog IVa 13.5, mog IV 14.1, mog III 15.3, mog II 16.2.” for “mM.”
as §5

[10] = Mog V Substrate (10 mM) (24 h), pH 5.6, 37° C.
[11] = Equimolar MogV:SiaI Substrate (5 mM each) (48 h), pH 5.6, 37° C.

| oNPG [3] [mAu/min/mg] | Molecule | Initial Rate [1] [µmol/min/mg] | Reaction Progress [1] [%] | Sia 1 [1] [%] | Sia:MogIII [1] | Sia:MogIV [1] | Reaction progress (% conversion) [2] [%] | % Siamenoside I [2] [%] | Km [4] [mM] | kcat [4] [s⁻¹] | Km [5] [mM] | kcat [5] [s⁻¹] | % Peak Area Siamenoside I [8] [% Peak Area] | Reaction Progress [8] | Siamenoside I Substrate Evaluation % Peak Area Siamenoside I Left After 72 hr [9] [% Peak Area] | further results |
| --- | --- | --- | --- | --- | --- | --- | --- | --- | --- | --- | --- | --- | --- | --- | --- | --- |
| 41.4 ± 0.9 | B1 | 2.70 | 99 | 55 | 2.8 | 2.1 | 99 | 55 | 3.31 ± 0.8 | 36.8 ± 3.1 | 2.5 ± 0.2 | 966 ± 26 |  |  |  | rate of mogroside hydrolysis (in words) [1]: increased initial rate of mogroside hydrolysis; also recorded: increased rate of mogroside V hydrolysis |
|  | B2 |  |  |  |  |  | 89 | 76 ± 3.1 |  |  |  |  |  |  |  |  |
| 33.6 ± 0.4 | B3 | 2.16 | 89 | 73 | 16.2 | 13 | 91 | 78 ± 2.8 | 4.42 ± 0.9 | 3.9 ± 0.7 | 2 ± 0.4 | 741 ± 38 |  |  |  | Siamenoside I production/yield from mogroside V (in words) [1]: increased ratio of Siamenoside I production; also recorded: increased Siamenoside I yield; mog III [1, 10]: 1 molar percentage; mog V [1, 10]: 67 molar percentage; sia I [1, 10]: 32 molar percentage; mog II [6, 11]: 0.1 molar percentage; mog III [6, 11]: 3 molar percentage; mog IV [6, 11]: 0.2 molar percentage; mog V [6, 11]: 10 molar percentage; sia I [6, 11]: 82 molar percentage; effectiveness of Siamenoside I as a substrate in the presence of mogroside V (in words) ([6]; comparison of wildtype and variant): reducing the effectiveness of Siamenoside I as a substrate; mog II [7]: 3 molar percentage; mog III [7]: 12 molar percentage; sia I [7]: 84 molar percentage |
|  | B4 |  |  |  |  |  |  |  |  |  |  |  | 73 | 87 | 69 |  |
|  | B5 |  |  |  |  |  |  |  |  |  |  |  | 72 | 85 | 73 |  |
